Measured values from IntAct's records for PubMed 23918659.

B1: Vacuolar protein sorting-associated protein 33B (Homo sapiens), Q9H267 (parent)
chain: MAFPHRPDAPELPDFSMLKRLARDQLIYLLEQLPGKKDLFIEADLMSPLDRIANVSILKQHEVDKLYKVENKPALSSNEQLCFLVRPRIKNMRYIASLVNADKLAGRTRKYKVIFSPQKFYACEMVLEEEGIYGDVSCDEWAFSLLPLDVDLLSMELPEFFRDYFLEGDQRWINTVAQALHLLSTLYGPFPNCYGIGRCAKMAYELWRNLEEEEDGETKGRRPEIGHIFLLDRDVDFVTALCSQVVYEGLVDDTFRIKCGSVDFGPEVTSSDKSLKVLLNAEDKVFNEIRNEHFSNVFGFLSQKARNLQAQYDRRRGMDIKQMKNFVSQELKGLKQEHRLLSLHIGACESIMKKKTKQDFQELIKTEHALLEGFNIRESTSYIEEHIDRQVSPIESLRLMCLLSITENGLIPKDYRSLKTQYLQSYGPEHLLTFSNLRRAGLLTEQAPGDTLTAVESKVSKLVTDKAAGKITDAFSSLAKRSNFRAISKKLNLIPRVDGEYDLKVPRDMAYVFGGAYVPLSCRIIEQVLERRSWQGLDEVVRLLNCSDFAFTDMTKEDKASSESLRLILVVFLGGCTFSEISALRFLGREKGYRFIFLTTAVTNSARLMEAMSEVKA
partner: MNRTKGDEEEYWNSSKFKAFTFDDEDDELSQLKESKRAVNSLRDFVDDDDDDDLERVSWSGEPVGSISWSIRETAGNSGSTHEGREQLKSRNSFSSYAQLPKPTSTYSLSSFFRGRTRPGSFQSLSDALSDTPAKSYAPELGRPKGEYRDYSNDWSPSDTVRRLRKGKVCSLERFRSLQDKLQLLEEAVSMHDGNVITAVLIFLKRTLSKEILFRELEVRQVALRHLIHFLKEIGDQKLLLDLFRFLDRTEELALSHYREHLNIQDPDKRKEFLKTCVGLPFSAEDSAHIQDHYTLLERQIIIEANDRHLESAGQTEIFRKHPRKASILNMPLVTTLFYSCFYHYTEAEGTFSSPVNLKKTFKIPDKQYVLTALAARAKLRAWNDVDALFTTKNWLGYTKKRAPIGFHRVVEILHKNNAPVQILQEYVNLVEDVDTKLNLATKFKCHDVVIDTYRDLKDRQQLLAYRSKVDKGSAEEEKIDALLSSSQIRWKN

Variants of: B1
Settings: with spe39_human VIPAS39, Q9H9C1

Row | effect of a mutation on the interaction | Variant
1 | disrupting interaction | V235A;D236A;F237A
2 | disrupting interaction | V251A;D252A;D253A
3 | disrupting interaction | D232A;R233A;D234A

Variants of: B1
Settings: with spe39_human VIPAS39, Q9H9C1
Remark: another data set of the same source

Row | effect of a mutation on the interaction | Variant
4 | decreasing interaction | G249V
5 | decreasing interaction | L30P

Variants of: B1
Settings: with spe39_human VIPAS39, Q9H9C1
Remark: another data set of the same source

Row | effect of a mutation on the interaction | Variant
6 | disrupting interaction | L30P

Variants of: B1
Settings: with spe39_human VIPAS39, Q9H9C1
Remark: another data set of the same source

Row | effect of a mutation on the interaction | Variant
7 | decreasing interaction | S243F
8 | decreasing interaction | D252E
9 | decreasing interaction | D234H
